Experimental findings from patent publication US12527862B2, “Bactericidal/permeability increasing protein for use in a method of immunization, preferably as an adjuvant in a method of vaccination” (UNIVERSITÄT REGENSBURG, priority 2018, dated 2026) are described below.

The subject of test [1] is murine macrophages (BMDM). The test is described as follows: TNFα ELISA in murine macrophages (BMDM). It counts as cell-based. Particulars: LPS Ec 10 ng/ml or BPI 100 nM, 18 h, ELISA (FIG. 4B). As for the experimental part:
Generation of BMDM was carried out similarly to BMDCs; MCSF was used instead of GMSCF for differentiation of BMDM. Cells were re-plated on day 1 of culture and harvested on day 5. On day 1, cells were seeded in new plates and harvested on day 5 for the experiments. Cells were stimulated with LPS Ec (10 ng/ml) or BPI (100 nM) for 18 h before supernatants were collected. TNFα levels were determined by ELISA (OPTEIA™ Murine TNFα ELISA Set, BD Bioscience, Heidelberg, Germany).
Background: In an ELISA, binding on a coated surface is turned into a signal by an enzyme label.

Test [2] deals with bone marrow derived dendritic cells (BMDCs). Put plainly: FACS surface expression of maturation markers/costimulatory molecules on BMDCs. As to conditions: huBPI 200 nM, 18 h, vs unstimulated cells, n=4 (FIG. 1). It counts as cell-based, C57BL/6J mice. As for the experimental part: BMDCs were generated from the bone marrow of male C57BL/6J mice at the age of approximately 3 to 7 months, which were bred under SPF conditions. BMDCs were generated as previously described. BMDCs were harvested on day 7 by rinsing the dish in order to obtain the non-adherent and loosely-adherent cell fractions.
Cell Stimulation 5×10^4 BMDCs per well were seeded into a tissue-culture-treated 96-well plate in VLE-RPMI 1640 media (10% FCS, 10% Penicillin-Streptomycin, 50 µM β-Mercaptoethanol) and stimulated with 200 nM huBPI.
BMDCs were stimulated with huBPI (200 nM) for 18 h. After the stimulation period, the stimulated and unstimulated cells were incubated with Fc-Block and stained using the indicated antibodies (Table 1) and the respective isotype controls (Table 2). 7-Aminoactinomycin D (7-AAD, #00-6993-50, eBioscience) positive stained cells were excluded from the analysis. Flow cytometry measurement was performed using the instrument BD FACS Canto™ II (BD Bioscience). Data was analyzed using BD FACSDiva™ software v.7.0 (BD Bioscience) as well as FlowJo v.10 (Tree Star).

Test [3] relates to bone-marrow derived dendritic cells. Put plainly: Microarray gene expression analysis in BMDCs. It counts as cell-based, C57BL/6J mice. Particulars: 4 h. As for the experimental part:
All methods mentioned in this example were carried out as described in Example 1. BMDCs were seeded into a tissue-culture-treated 96-well plate in VLE-RPMI 1640 media (10% FCS, 10% Penicillin-Streptomycin, 50 μM β-Mercaptoethanol) and stimulated with 200 nM huBPI or muBPI. 4 h after stimulation, gene expression analysis was performed by microarray analysis (Affymetrix Mouse Gene 2.0 ST, FIGS. 2A and 2B).

The test system of test [4] is co-culture of lymphnode cells (LNCs) and dendritic cells (DCs). Put plainly: Co-culture of lymph node cells and BMDCs, cytokine secretion. It counts as cell-based, C57BL/6J mice. Particulars: BPI 200 nM, n=5 (FIG. 12). As for the experimental part: All methods mentioned in this example were carried out as described in the preceding examples. Peripheral lymph nodes of C57BL/6J mice were collected to obtain lymph node cells. The cells were isolated by pressing the lymph nodes through a […] cell strainer, flushing the homogenate with either RPMI-VLE or PBS, and collecting the cell dispersion in a 50 ml falcon tube. The suspension was centrifuged (300×g, 21° C., 8 min) and the cell pellet was resuspended in 2 to 5 ml of cell culture medium (VLE-RPMI 1640 medium containing glutamine supplemented with 10% heat-inactivated FCS, 10% penicillin-streptomycin and 50 μM sterile-filtered β-Mercaptoethanol). After this procedure the cell suspension was washed once or twice in cell culture medium or PBS by centrifugation (300×g, 21° C., 8 min). BMDCs were seeded and co-cultured with a threefold excess of peripheral lymph node cells in the presence or absence of BPI (200 nM) in in cell culture medium. Supernatans were collected and measured as described in preceding examples.

In test [5] the test system is CD3+CD8+ T cells. Put plainly: Intracellular IFNγ staining of CD8+ T cells after supernatant stimulation. It counts as cell-based, C57BL/6J mice. Particulars: SN BPI vs SN NT, 24h, n=4 (FIG. 13D). The method, then:
Naive CD4+CD25-CD44-CD62L+ T cells were isolated from peripheral lymph nodes and spleen of C57BL/6J mice and purified by MACS and FACS. Naïve CD4+ T cells were cultured in the presence of aCD3 and aCD28 antibodies and dendritic cell-derived supernatant after stimulation with BPI (SN BPI, BPI 200 nM) or after stimulation with ODN 1826 (SN CpG, ODN 1826 20 nM) or after stimulation with BPI and ODN 1826 (SN BPI+CpG, BPI 200 nM, ODN 1826 20 nM) or supernatant without addition of BPI or ODN 1826 (SN NT). On day five, cytokine levels were measured by Luminex. • A. Th1 differentiation as shown by detection of IFNγ (n=3). • B. Th17 differentiation as shown by detection of IL-17 (n=3). • C. […] Lymph node cells were stimulated with aCD3 and aCD28 antibodies and SN BPI or SN NT and incubated for 6h before adding a protein transport inhibitor cocktail and incubating for additional 16h. Cells were fixed and permeabilized and stained for CD3, CD4, CD8, and IFNγ. Lines are connecting the amount of IFNγ-producing CD3+CD8+ T cells after treatment with SN BPI or SN NT for 24h. • Bars represent the means±standard error of the mean. Statistics for comparison were performed with the paired Student's t-test (A to C) or the ratio paired Student's t-test (D).
All described work steps were conducted on ice. […]

B1: bactericidal/permeability-increasing protein (protein)
chain: RIKIPDYSDSFKIKHLGKGHYSFYSMDIREFQLPSSQISMVPNVGLKFSISNANIKISGKWKAQKRFLKMSGNFDLSIEGMSISADLKLGSNPTSGKPTITCSSCSSHINSVHVHISKSKVGWLIQLFHKKIESALRNKMNSQVCEKVTNSVSSELQPYFQTLPVMTKIDSVAGINYGLVAPPATTAETLDVQMKGEFYSENHHNPPPFAPPVMEFPAAHDRMVYLGLSDYFFNTAGLVYQEAGVLKMTLRDDMIPKESKFRLTTKFFGTFLPEVAKKFPNMKIQIHVSASTPPHLSVQPTGLTFYPAVDVQAFAVLPNSSLASLFLIGMHTTGSMEVSAESNRLVGELKLDRLLLELKHSNIGPFPVELLQDIMNYIVPILVLPRVNEKLQKGFPLPTPARVQLYNVVLQPHQNFLLFGADVVYK
modifications: labeled with NT647 (Monolith NT Protein Labeling Kit RED-NHS) in the MST experiments
notes: recombinant human BPI, aa32-487 of huBPI with N-terminal HA signal peptide, expressed in HEK293T cells
Turning to B1, the “TNFα secretion by macrophages” value in test [1] is given as “not in response to stimulation with BPI”. Further, the “expression of costimulatory receptors CD40, CD80, and CD86” value in test [2] was “promotes expression of costimulatory receptors CD40, CD80, and CD86”. The “immunostimulatory effect on BMDCs (gene expression)” value in test [3] (200 nM huBPI or muBPI, microarray (FIG. 2A)) is “shows an immunostimulatory effect on BMDCs”. In test [3] (200 nM, microarray (FIG. 2B)), the “induced genes important for activation and priming of T cells” value was “IL-2 is the highest induced cytokine”. Also, the “secretion of IL-4 in co-culture of LNCs and BMDCs” value in test [4] is on record as “not observed”. Besides, the “secretion of IFNγ and IL-17 in co-culture of LNCs and BMDCs” value in test [4] (threefold excess of lymph node cells) is recorded as “Significant secretion”. Moreover, the “activation of CD8+ T cells (IFNγ-producing CD3+CD8+ T cells)” value in test [5] is “activation of CD8+ T cells”.
